According to PMC5712553, “A Novel TetR Family Transcriptional Regulator, CalR3, Negatively Controls Calcimycin Biosynthesis in Streptomyces chartreusis NRRL 3882”:

T1: CalR3 (Streptomyces chartreusis NRRL 3882) (UniProt F8QZR9)
T1 sequence: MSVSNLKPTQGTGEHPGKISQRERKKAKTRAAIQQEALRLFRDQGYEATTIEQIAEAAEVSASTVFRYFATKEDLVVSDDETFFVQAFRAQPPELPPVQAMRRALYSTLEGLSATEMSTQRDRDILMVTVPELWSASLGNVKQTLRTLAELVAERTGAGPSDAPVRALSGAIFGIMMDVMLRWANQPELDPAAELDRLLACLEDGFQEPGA

T2: CalR3 (Streptomyces chartreusis NRRL 3882, UniProt F8QZR9 1-211)
T2 sequence: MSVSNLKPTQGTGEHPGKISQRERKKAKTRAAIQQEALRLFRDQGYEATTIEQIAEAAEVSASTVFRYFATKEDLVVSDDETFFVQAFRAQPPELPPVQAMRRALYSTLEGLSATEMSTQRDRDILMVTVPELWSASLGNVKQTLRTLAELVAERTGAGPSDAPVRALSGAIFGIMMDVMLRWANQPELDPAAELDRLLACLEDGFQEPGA

B1: m0 (dsDNA)
DNA 1: AAGAGCGAGCCTCATGACAGGCAACCTTCTTTTAGGAGTCGACTTTCAATTGATAGCCTACTAGCACTTTGAGGAGATGA
DNA 2: TCATCTCCTCAAAGTGCTAGTAGGCTATCAATTGAAAGTCGACTCCTAAAAGAAGGTTGCCTGTCATGAGGCTCGCTCTT
B2: m1 (site II palindrome mutated) (dsDNA)
DNA 1: AAGAGCGAGCCTCATGACAGGCAACCTTCTTTTAGGAGTCGAGAATTCTAGATATCCCTACTAGCACTTTGAGGAGATGA
DNA 2: TCATCTCCTCAAAGTGCTAGTAGGGATATCTAGAATTCTCGACTCCTAAAAGAAGGTTGCCTGTCATGAGGCTCGCTCTT
B3: m1&2 (sites I and II mutated) (dsDNA)
DNA 1: AAGAGCGAGCCTCAACTGAGGCAACCTTCTTTTAGGAGTCGAGAATTCTAGATATCCCTACTAGCACTTTGAGGAGATGA
DNA 2: TCATCTCCTCAAAGTGCTAGTAGGGATATCTAGAATTCTCGACTCCTAAAAGAAGGTTGCCTCAGTTGAGGCTCGCTCTT

Assays:
[1] = molecular target: T1, CalR3 (Streptomyces chartreusis NRRL 3882); assay: EMSA; settings: EMSA: 20 mM Tris-Cl pH 8.0, 100 mM KCl, 10 mM DTT, 37 C, 30 min, 20 ul, footprinting: 25 C, 500 ng probe in 40 ul
CalR3 [2] = molecular target: T2, CalR3; assay: EMSA; 1.5 uM probe, 0.8 uM CalR3; two shifted bands; EMSA: 20 mM Tris-Cl pH 8.0, 100 mM KCl, 10 mM DTT, 37 C, 30 min, 20 ul; footprinting: 25 C, 30 min, 500 ng probe in 40 ul; settings: protein: recombinant; tags: N-terminal His6 (pET28a); chain copies: 2
CalR3 [3] = molecular target: T2, CalR3; assay: EMSA; 1.5 uM probe, 0.8 uM CalR3; EMSA: 20 mM Tris-Cl pH 8.0, 100 mM KCl, 10 mM DTT, 37 C, 30 min, 20 ul; footprinting: 25 C, 30 min, 500 ng probe in 40 ul; settings: protein: recombinant; tags: N-terminal His6 (pET28a); chain copies: 2

| Molecule | binding [1] | binding result (CalR3 [3]) | further results |
| --- | --- | --- | --- |
| TGACAGGCAACCTTCTTTTAGGAGTCGACTTTCAATTGATAGCCTACTAGCACTTTGAGGAGATGAGAACTCCTCCTCGCTGCCACCGCCGCACGCGGCCGGGCGCGGCACAGCCGTGACCGGCCGGCCGCCGGAGAGCCTGGAGAATGTGGAGCA (double strand) [T-R3 (calT-calR3 intergenic)] | binds |  |  |
| CCAGCCGGTAAAGAGCGAGCCTCATGACAGGCAACCTTCTTTTAGGAGTCGACTTTCAATTGATAGCCTACTAGCACTTTGAGGAGATGAGAACTCCTCCTCGCTGCCACC (double strand) [T-R3L] | binds |  |  |
| TCCCTTGCGTCGGTTTCAGGTTGGACACGCTCATGCTCCACATTCTCCAGGCTCTCCGGCGGCCGGCCGGTCACGGCTGTGCCGCGCCCGGCCGCGTGCGGCGGTGGCAGCGAGGAGGAG (double strand) [T-R3R] | no binding |  |  |
| B1 |  |  | binding result (CalR3 [2]): binds |
| B2 |  | no binding |  |
| B3 |  | no binding |  |
